Source: the domain aggregation screens of Martell et al. (2025)

Experiment: soluble fraction after stress (log2 fold change); higher = more stays soluble; pooled small domains, quantitative proteomics
Conditions: stress: pH 4
Outline: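 High-throughput quantitative proteomics was run on pooled custom libraries of small protein domains following pH 4 stress. Fold changes are on a log2 scale; higher values mean more of a domain remained soluble. The fold change in soluble amount is taken as a measure of aggregation propensity.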

Q: With “HMSDPHEELMSRIARDLSIPLTRVVAEMNTIISKEFGGHIRPEGAVVILAKRSGVEFSDLLPALRENILK” as the sequence, how does the “soluble fraction (log2)” value read?
A: -0.852

Q: With “HMSDQIQQIAERIAGLRDIAGYSVEELARELGISAEEYKRYESGEVDIPIGFLYKLANKYNVELTAILT” as the sequence, how does the “soluble fraction (log2)” value read?
A: -1.02

Q: Which “soluble fraction (log2)” value does the source give for “HMSDRFLDQEGVALSTLRPSGTVVLDSGEHLDVVTRGEFIEQGERVKVIKAESTWYVVEQIN” here?
A: -0.317

Q: For “HMSDRLRLGRRIRAARLEQNLSQAALAERLGISASYLNLLEHDRRSLTTVLLLKLAQVLGLELRDLAAG”, which “soluble fraction (log2)” value is on record?
A: 0.0304

Q: With “HMSDRLRPGDMVVVVGKKKRYPVFSAFDIDFVEAGDVGKVLTVKREEVVVGFPKKGEGTFTPSELNIAH” as the sequence, how does the “soluble fraction (log2)” value read?
A: 0.00331

Q: Which “soluble fraction (log2)” value does the source give for “HMSDTGQELHDALNMARRTLTILEEQAAGYTALTIPARLVLELEEKRKDVVRLETQIRSAATGTPG” here?
A: 0.00666

Q: Which “soluble fraction (log2)” value does the source give for “HMSDTLPRLLWNFQMAKRLDEMNGAEKRRYQLVLIHPQASEKERDYASSFAHQARMLGIEVAIRDS” here?
A: -0.139

Q: With “HMSDVVFRINANGLNVSGLANGERVSVYDTTGKLVTTAVSTQDNGTLNLPLKQSGGIYIARTQSGVSFKFT” as the sequence, how does the “soluble fraction (log2)” value read?
A: 0.108

Q: With “HMSDYKSYLQELVQTDKKSLSYNVVKETGPAHDKTFEVEVEVDGIIYAHGVGKSKKEAEQNAAKNAIMISA” as the sequence, how does the “soluble fraction (log2)” value read?
A: -0.24

Q: Which “soluble fraction (log2)” value does the source give for “HMSDYLGSLSHEEKMIFNHFDEDSSTIENMAKKTELKPELISQIFLNLELRGFLRQTEGGLYEKI” here?
A: -1.13

Q: Which “soluble fraction (log2)” value does the source give for “HMSDYYEVLGVTRQADAEEIKRAYRRKARQLHPDVAGPGHEEEFKEVTVAYEVLSDPEKRQAYDLGGQDAL” here?
A: 0.0614

Q: Which “soluble fraction (log2)” value does the source give for “HMSEDAVKFRAAVEVENGLAQRNLNKNQAALILGVDRSYFTYIISGKKTPSPDMAKRIGLLLGFDWRVFYA” here?
A: -0.324

Q: For “HMSEEIKVPNFVGSTFEKAQALAQETGLEIARGEDVYSPDQEEGKITSQNPTADSVVSPGKLITVYVSKG”, which “soluble fraction (log2)” value is on record?
A: 0.0365

Q: Which “soluble fraction (log2)” value does the source give for “HMSEIKDRLREARRNKGLSQAGLSKLLGVSQASIAAIESGRNKRPTNLVSIAKALDVSPYWLETGK” here?
A: 0.0733

Q: For “HMSEITQTLSMIGKEVTLEIPDEKDKTKTTEVKGIVTEASFKDGTGKVKVNGEYYSIAYITSIRDT”, which “soluble fraction (log2)” value is on record?
A: -0.545

Q: Which “soluble fraction (log2)” value does the source give for “HMSEIVEEQNTKLKQAVSKLSKRQQEVLYLKFEEGLDYEQISKIMDLKYQSVRNLVSTAIIKIKEH” here?
A: 0.0707

Q: Which “soluble fraction (log2)” value does the source give for “HMSEKELTDLIERIKERRLKLEMSYQDLSDATGISKSTLQRYETGYIKKVPINQIEILAKALHTTPSYLMG” here?
A: 0.0791

Q: Which “soluble fraction (log2)” value does the source give for “HMSEKIDINNSNELELKQLPLTNEQIKSLIEFRRLHGEIQNIYELKNIDFFNIEKVHELKAHIEIKKII” here?
A: -1.05

Q: With “HMSELADDPVYTALEKAADKAGLQLTVRILNDLADAVLKRGKKKLTAAQAGKVIARAESELAKSRID” as the sequence, how does the “soluble fraction (log2)” value read?
A: ≥ 0.43

Q: Which “soluble fraction (log2)” value does the source give for “HMSELDASYLGQRVRYVSGFTETDPSEGLVEFRGSNWRARAEHPPLDHSGHWVIVKVESNTLWVEEKSN” here?
A: 0.0761

Q: For “HMSENEIDELRRRFAREAMALMERKGEEVSRTRLAAELSVARARIDAVFPEESDLLEAVTAEWFA”, which “soluble fraction (log2)” value is on record?
A: -0.799

Q: For “HMSENEVQAKVKEIVDRYAGDKSALIAILQDVQDEYRYLPKEALVSIQQQMNIPLSRVYEVATFYDAFS”, which “soluble fraction (log2)” value is on record?
A: -0.862

Q: Which “soluble fraction (log2)” value does the source give for “HMSEPIYTQLKEILTQKIVNGEFPPGARLPSEYELTELYHISRSTVRLALKELEASGMIVRRRGKGTFVSS” here?
A: -0.0496

Q: Which “soluble fraction (log2)” value does the source give for “HMSEPRYRQLATILAQEIRSNHSAGDQLPSEQALAKRFEVNRHTVRRAVDELVAAGMVTRHQGWGTQVV” here?
A: 0.243

Q: For “HMSEQGVITAKFASIVGNQNIQLVMFPDSVYLKGQVSSEEEKKRAETVASSLIQDRKIVNLIEFE”, which “soluble fraction (log2)” value is on record?
A: -0.638

Q: For “HMSEQIALQFAKAKQHHTGIALKGIEALELRYKGYTGKEIAALYHTSPKSVFSWISRAKQKLRQN”, which “soluble fraction (log2)” value is on record?
A: ≥ 0.43

Q: With “HMSEQLHALIDRLDDIPDDELKKNWPGTLRDLVDVISAELHRQGIEPAQAGMLARKVAAAQAGYMG” as the sequence, how does the “soluble fraction (log2)” value read?
A: -0.742

Q: Which “soluble fraction (log2)” value does the source give for “HMSEQLKQIAERIKELRNIAGLGEEELAAKLDIPVDTYREYESGNVDIPVSFLYKISGMFNVELTAIL” here?
A: -1.05

Q: Which “soluble fraction (log2)” value does the source give for “HMSEQLVGTVGHITVGTARTASPAEAKFLDAFEQPHYLLVEPIEPKDIFQQGDKVVLVKKQHHSWLATRYI” here?
A: 0.0779

Q: Which “soluble fraction (log2)” value does the source give for “HMSEQTLEDVRRLIEHLPESQKEVVKMRYYQDLSFKEIADLKGISINTALGRMHYAINNMRKMAKEYGL” here?
A: -0.473

Q: Which “soluble fraction (log2)” value does the source give for “HMSEQVQLQAQVEDDLIGKRLDQVVAQLFPDYSRSRLQGWIKDGSLTVDGESRRPRDKMMGGEVVRVEATL” here?
A: -0.347

Q: Which “soluble fraction (log2)” value does the source give for “HMSEQVTMIDVEGKTETEAKKALEDLGLKVEITYESADAAAGTVIGQDVKAGSTVSEGSRVTLTVSGQ” here?
A: -0.211

Q: With “HMSERQTGTVKWFNNAKGFGFITMADRPDDIFVHFRAIQGDGYRSLNEGEEVEFSLVEGPKGLQAEEVTK” as the sequence, how does the “soluble fraction (log2)” value read?
A: -1.09

Q: With “HMSESAGKAFDLLFYLAKAGETVSLARLSRETGMNKATALRYLNVLESKGVVERSKLGWTLGLSLFELGSK” as the sequence, how does the “soluble fraction (log2)” value read?
A: -0.508

Q: Which “soluble fraction (log2)” value does the source give for “HMSESIFTLYGDEKFEKIRYYLKERGFITLDALARFDFDELLFVPGVSELLISEAKQLFSRYDTSSLAAKE” here?
A: -0.921

Q: Which “soluble fraction (log2)” value does the source give for “HMSETAEFIIQVNGKVRAKLQLPTDISKEEIQKLALADENVQKYLNGEPRKIIFPPNTRLVSIV” here?
A: -0.0446

Q: Which “soluble fraction (log2)” value does the source give for “HMSETEEWTVEGGQAGDRIDRHVAAMLGDDVSRSQVQQWIRAGRVTVNGRAVKPSDTVEEGDRVAVDLPEP” here?
A: -0.397

Q: Which “soluble fraction (log2)” value does the source give for “HMSETVYQYVARQLRDMLGSGEIPVGQQLPTYRELAKRFQVSLSVIQRAMRQLKAEAVVSIAHGQGVKAVR” here?
A: -0.176

Q: For “HMSEVPVLVAKTDIKELELIDDRKVTLINVPQKFKMPGSFNSPEEVYNTIAAVPIKEGEQITKPRVTWP”, which “soluble fraction (log2)” value is on record?
A: -0.443

Q: For “HMSEVSEILTRARFFAGVKTDAELSTLLKIPYGTLIGWKTRKNIPESRIAQMALILGIRRDTLIPA”, which “soluble fraction (log2)” value is on record?
A: -0.11

Q: For “HMSEYIFGKNVVKEAFNNPSRIEEIYVLDKNMEFVSLAKKYHIKYTVITSSEMNKMVSGNHQGVVALVK”, which “soluble fraction (log2)” value is on record?
A: -0.264

Q: With “HMSFDENEALRKALDVFWEKGYDGTSLSDLTEAMGINKPSLYATFGNKDQLFLKAIEMYENR” as the sequence, how does the “soluble fraction (log2)” value read?
A: -1.44

Q: Which “soluble fraction (log2)” value does the source give for “HMSFDTFKKVFSNLVEKSGYSDAEIARRLGVNRSTISRWKSGEQSPPLPKVKEIANFFGVSPMVFVD” here?
A: 0.0603

Q: With “HMSFFNGNQMKILRKKLQLNQEEMGEKLGIKKSYVSQLENNRKEITEEIDQILQELEQEYQDKM” as the sequence, how does the “soluble fraction (log2)” value read?
A: -0.0582

Q: Which “soluble fraction (log2)” value does the source give for “HMSFGESLKKLSIALNSIRKLATTDAGKKDPKVADLLGQIRDTFNSYRTHLRKNYPDLYSGIKNQL” here?
A: -0.311

Q: Which “soluble fraction (log2)” value does the source give for “HMSFGKKLRSLRQEKKLSQVELSKKLNVTSQALSQYELGKRIPDAEMIIRIADFFDVSVDYLLDRT” here?
A: -0.137

Q: For “HMSFGWESLENKEGVADTDLHPSGWVRIEDSRIFVVSEGDFINKGSKVTVLTVDGNRVVVRELI”, which “soluble fraction (log2)” value is on record?
A: -1.79

Q: For “HMSFNISPTKKLILELIMNGTAAVEAIAVKAGISKGMAYNHLRELRSMGYITDEGGYKITDSGRLAV”, which “soluble fraction (log2)” value is on record?
A: -0.399

Q: Which “soluble fraction (log2)” value does the source give for “HMSFNNHYEILQVQPSADREVIEAAAKALLKKHHPDLGGRNTITSHIVQAKKVLTDTSQRADFDARLRERL” here?
A: 0.165

Q: Which “soluble fraction (log2)” value does the source give for “HMSFNSQENKSVLWQFLLENNFFIGLSDKKFNKVKDIFEKNIQSISIVNDSISNKNKILIQKMMEELELL” here?
A: -1.46

Q: With “HMSFPDTYFKGNKVIGLSYNDLKKFLNNAGYSKFDEEVEEWGEKRVSIEDDMVDFYLEDDKVVSI” as the sequence, how does the “soluble fraction (log2)” value read?
A: -0.356

Q: For “HMSFPFLMPNLEGLQLDQVRVILEENGLEIGQENYQPDSKFGPGTIINHQPSVDTVVQTGQKVNLQISGTD”, which “soluble fraction (log2)” value is on record?
A: -1.14

Q: With “HMSFSSLSNDILSEIQKDNNITYDELSEKLQKDRATIYRNMKKLVENGLLKRVGGRKSGHWEIIE” as the sequence, how does the “soluble fraction (log2)” value read?
A: ≥ 0.43

Q: Which “soluble fraction (log2)” value does the source give for “HMSFVDFYGLFTTELQRLAELPVTADELIKNTGLHKSQLTDWLKRAEEDGVVKKLNRPVRYQVEKK” here?
A: -0.989

Q: For “HMSGAQIQQLLESRAPQPGMNPDMIVRRKTYMNNVFNALKGALLRVANGSSPEEVKTEVDAAIQVDPDKL”, which “soluble fraction (log2)” value is on record?
A: -0.151
